T1: CVA16 empty particle (strain CVA16/190) (Coxsackievirus A16, strain CVA16/190 …, strain)
T1 chain 1: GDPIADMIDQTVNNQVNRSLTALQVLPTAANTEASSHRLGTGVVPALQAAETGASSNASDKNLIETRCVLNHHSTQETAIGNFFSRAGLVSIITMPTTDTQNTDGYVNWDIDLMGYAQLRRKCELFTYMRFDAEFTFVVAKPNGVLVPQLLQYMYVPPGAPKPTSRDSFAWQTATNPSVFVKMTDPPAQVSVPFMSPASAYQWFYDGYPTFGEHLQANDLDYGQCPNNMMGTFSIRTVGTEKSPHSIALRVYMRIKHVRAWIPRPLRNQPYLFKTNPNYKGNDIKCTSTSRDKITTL
T1 chain 2: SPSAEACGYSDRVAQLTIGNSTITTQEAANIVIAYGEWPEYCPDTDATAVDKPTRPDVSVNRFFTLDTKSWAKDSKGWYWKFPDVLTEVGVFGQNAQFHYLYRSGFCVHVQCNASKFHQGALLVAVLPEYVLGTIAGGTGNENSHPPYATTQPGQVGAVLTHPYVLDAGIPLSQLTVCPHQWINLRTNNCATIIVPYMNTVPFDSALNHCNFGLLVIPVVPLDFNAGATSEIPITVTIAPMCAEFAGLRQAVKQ
T1 chain 3: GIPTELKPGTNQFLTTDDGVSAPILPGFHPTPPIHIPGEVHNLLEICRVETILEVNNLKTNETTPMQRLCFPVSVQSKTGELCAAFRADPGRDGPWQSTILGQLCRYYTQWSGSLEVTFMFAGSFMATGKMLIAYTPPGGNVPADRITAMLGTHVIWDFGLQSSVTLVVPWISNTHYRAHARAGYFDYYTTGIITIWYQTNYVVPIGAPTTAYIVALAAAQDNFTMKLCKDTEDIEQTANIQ

T2: CVA16 mature virion (strain CVA16/190) (Coxsackievirus A16, strain CVA16/190 …, strain)
T2 chain 1: T1 chain 1
T2 chain 2: T1 chain 2
T2 chain 3: T1 chain 3
T2 chain 4: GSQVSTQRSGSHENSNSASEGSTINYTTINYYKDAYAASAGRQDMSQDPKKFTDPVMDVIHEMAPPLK

T3: CVA16 A-particle (strain CVA16/190) (Coxsackievirus A16, strain CVA16/190 …, strain)
T3 chain 1: T1 chain 1
T3 chain 2: T1 chain 2
T3 chain 3: T1 chain 3

B1: Mouse Monoclonal Antibody-NA9D7 (antibody, V domains shown)
VH: EVQLQQSGPELVKPGASVKMSCKASGYTFTDYYMKWVKQSHGKSLEWIGDINPNNGATSYNQKFKGKATLTVDKSSSTAYMQLNSLTSEDSAVYYCARRGYGLYYAMDYWGQGTSVTVSS
VL: EIVLTQSPTTMAASPGEKITITCSASSSISSNYLHWYQQKPGFSPKLLIYRTSNLASGVPARFSGSGSGTSYSLTIGTMEAEDVATYYCQQGSSIPHTFGGGTKLEIK
B2: NA9D7 Fab fragment (Fab, V domains shown)
VH: B1 VH
VL: B1 VL
B3: Mouse Monoclonal Antibody-14B10 (antibody, V domains shown)
VH: QVQLQQSGPELVKPGASVKISCKASGYEFSRSWMNWVKQRPGQGLEWIGRIYPGDGDTNYNGKFRDKATLTADKSSSTAYMQLSRLTSVDSAVYFCARRRGYFDVWGAGTTVTVS
VL: DIQMTQSSSYLSVSLGGRVTITCKASDHINNWLAWYQQKPGNAPRLLISGATSLETGIPSRFSGSGSGKDYTLSITSLQTEDVGTYYCQQYWSTPTFGGGTKLEIK
B4: 14B10 Fab fragment (Fab, V domains shown)
VH: B3 VH
VL: B3 VL
B5: Mouse Monoclonal Antibody-18A7 (antibody, V domains shown)
VH: EVQLQQSGPELVKPGASVKMSCKASGYTFTDYYMKWVKQSHGKSLEWIGDINPYNGDSFNNQKFKGKATLTVDTSSSTAYMQLNSLTSEDSAVYYCAIPYDYDEGWFAYWGQGTLVTVSA
VL: DIVMSQSPSSLAVSVGEKVTMSCKSSQSLLYSNNQKNYLAWYQQKPGQSPQLLIYWASTRESGVPDRFTGSESGTDFTLTISSVKAEDLAVFYCQQYYNYPWTFGGGTKLEIK
B6: 18A7 Fab fragment (Fab, V domains shown)
VH: B5 VH
VL: B5 VL

Legend:
[1] = target: CVA16 mature virion (strain CVA16/190) (coxsackievirus A16 (strain CVA16/190))
[2] = target: T1, CVA16 empty particle (strain CVA16/190); assay: ELISA
[3] = target: T2, CVA16 mature virion (strain CVA16/190); assay: cryo-EM structure
[4] = target: T3, CVA16 A-particle (strain CVA16/190); assay: cryo-EM structure
[5] = target: T1, CVA16 empty particle (strain CVA16/190); assay: cryo-EM structure

Row | Binder | IC50 of neutralisation of CVA16/190 in RD cells (micro-neutralization, Elispot) [1] [µg/mL] | binding result [2] | stoichiometry N [3] [Fabs per mature virion] | other results
1 | B1 | 1.96 | no binding | – | –
2 | B2 | – | – | ≤ 60 | –
3 | B3 | 1.01 | no binding | – | –
4 | B4 | – | – | ≤ 60 | –
5 | B5 | 0.04 | – | – | –
6 | B6 | – | – | – | stoichiometry N [4]: 12 Fabs per viral particle; stoichiometry N [5]: 12 Fabs per viral particle

From paper PMC7539366 (Cell host & microbe, 2020)
